Experimental data taken from publication PMC9801508, “A Cell-Permeant Nanobody-Based Degrader That Induces Fetal Hemoglobin” (ACS Central Science, 2022).
Where a chain is given by its changes, count along the chain named. One block for each binder: values may come before it.

Key:
[1] = target: T1, BCL11A extended zinc finger domain (exZnF23) (Homo sapiens, UniProt Q9H165); test: pull-down; wt2D9 and BCL11A (Figure S1b); details in the Supporting Information
T1 construct: Monomeric by SEC-MALS; also called exZnF23A; BCL11A exZnF23; source: E. coli, purified
T1 sequence (Q9H165 whole entry, looked up, the tested form may be a part): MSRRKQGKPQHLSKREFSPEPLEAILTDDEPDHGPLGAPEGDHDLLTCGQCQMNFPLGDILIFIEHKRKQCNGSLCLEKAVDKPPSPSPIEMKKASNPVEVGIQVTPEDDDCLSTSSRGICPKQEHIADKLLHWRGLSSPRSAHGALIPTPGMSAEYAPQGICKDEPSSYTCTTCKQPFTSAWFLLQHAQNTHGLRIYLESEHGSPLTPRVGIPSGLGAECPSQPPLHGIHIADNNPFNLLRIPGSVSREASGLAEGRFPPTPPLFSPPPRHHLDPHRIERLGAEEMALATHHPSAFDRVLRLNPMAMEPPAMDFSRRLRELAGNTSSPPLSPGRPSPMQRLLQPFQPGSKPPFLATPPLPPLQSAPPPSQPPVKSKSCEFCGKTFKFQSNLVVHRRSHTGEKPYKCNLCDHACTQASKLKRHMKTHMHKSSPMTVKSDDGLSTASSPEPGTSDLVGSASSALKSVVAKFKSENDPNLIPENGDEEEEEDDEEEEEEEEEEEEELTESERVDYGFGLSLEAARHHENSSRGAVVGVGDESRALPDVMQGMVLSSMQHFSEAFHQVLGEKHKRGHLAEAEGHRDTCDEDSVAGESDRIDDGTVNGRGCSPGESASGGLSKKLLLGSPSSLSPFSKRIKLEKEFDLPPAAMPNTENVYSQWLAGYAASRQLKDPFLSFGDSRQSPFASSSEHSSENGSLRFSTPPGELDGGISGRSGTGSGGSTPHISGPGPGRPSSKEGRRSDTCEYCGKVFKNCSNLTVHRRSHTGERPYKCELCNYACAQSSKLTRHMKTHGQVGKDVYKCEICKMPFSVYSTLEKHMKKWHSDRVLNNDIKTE

[2] = target: T2, endogenous, full-length BCL11A (Homo sapiens (HUDEP-2 cells), UniProt Q9H165); test: pull-down; purified 2D9 or ZF5.3-2D9 added into the lysate of HUDEP-2 cells; endogenous BCL11A detected (the legend calls it immunoprecipitation); conditions: one partner purified
T2 construct: BCL11A, transcription factor and repressor of fetal globin genes, endogenous in HUDEP-2 cells; also called endogenous BCL11A; source: endogenous, HUDEP-2 lysate; endogenous, in HUDEP-2 cells
T2 sequence (Q9H165 whole entry): as the sequence (Q9H165 whole entry, looked up, the tested form may be a part) above

[3] = target: T1, BCL11A extended zinc finger domain …; test: pull-down; read by SDS-PAGE (Figure 1C); the legend names only an SDS-PAGE analysis; who was held is not told; methods in the Supporting Information; conditions: both partners purified

binding result [1]: binds
B1: Nanobody wt2D9 (initial hit) (VHH)
VHH: QVQLVESGGGLVQAGGSLRLSCAASGSIFVNNAMGWYRQAPGKERELVAAISASGGSTYYADSVKGRFTISRDNAKNTVYLQMNSLKPEDTAVYYCAADQDVYPYEYWGQGTQVTVSS
notes: initial synthetic nanobody hit of the yeast surface display screen; parent of 2D9 (2D9_V102G): as the chain of PDB 7UTG with V instead of G at 102; source: E. coli

binding result [2]: binds
binding result [3]: binds
B2: Nanobody 2D9 (2D9_V102G) (VHH)
VHH: B1 VHH with V102G
notes: also called Nb 2D9; source: purified

binding result [3]: binds
B3: Nanobody 2D9_W108L (VHH)
VHH: B1 VHH with W108L
notes: wt2D9 is as 2D9 of PDB 7UTG but with V at 102; By its name a single mutant of wt2D9, a sibling of 2D9_V102G; the reversion at 102 against PDB 7UTG is worked out from the names
